According to patent US10532083B2, “Methods for inducing differentiation or conversion of white adipocytes and/or preadipocytes to brown adipocites using FGF8” (Technische Universität München, priority 2014, dated 2020):

Tests used:
[1] = tested on: inguinal adipose tissue; assay: FGF8b releasing pellet implanted into inguinal (subcutaneous) adipose tissue in vivo; parameters: species or system 129Sv/ev mice; conditions: FGF8b pellets implanted into inguinal adipose tissue
Experimental: Pellets 1.5 mm in diameter were fabricated from a biodegradable matrix to locally release 100 ng FGF8b per day for 21 days (Innovative Research of America, Sarasota, Fla., USA). […] To implant a pellet into the subcutaneous adipose tissue, a mouse of the 129Sv/ev strain was anesthetized, abdominal fur removed and the pellet pushed into the depot through a short cut in the skin. To target the visceral adipose tissue, the pellet was introduced through a small cut each into skin and abdominal wall and placed between lobes of epididymal adipose tissue. Mice were kept in a specific pathogen free barrier facility at room temperature in a 12:12 hour light:dark cycle with free access to food and water. Three weeks after implantation mice were killed by carbon dioxide exposure and dissected. Blood parameters were analyzed with an automated clinical chemistry analyzer (Piccolo xpress system, Abaxis, Darmstadt, Germany). All animal experiments were performed according to the German animal welfare law (permission no. 55.2-1-54-2532-174-11). By visual inspection, the implantation site of FGF8b pellets and the surrounding adipose tissue was of a brown colour, while both the non-implanted contralateral depot and the implantation site of placebo pellets remained characteristically white (FIG. 6A). […]

[2] = tested on: epididymal white adipose tissue; assay type: in vivo, adult male 129Sv/ev mice
Text: Implantation of Ffg8b releasing pellets into the visceral, epididymal white adipose tissue depot leads to recruitment of brown adipocytes. A—Representative photographs centered on the implantation site of three control pellets (upper panels) and three Fgf8b pellets (lower panels). The epididymal fat depot is discernible in light gray shades surrounded by darker non-adipose tissues. The area of visible browning is marked by a dotted line. B—To highlight “visual browning” in this gray-scale images we digitally removed all pixels with a colour saturation of more than 162 (on a scale of 0-255). Here, white areas correspond to brown colour on a background of whitish adipose tissue. C—The mRNA abundance of several brown adipocyte marker genes in the entire depot. Ucp1 and Cox7a1 mRNA are increased by Fgf8b treatment but not by the placebo pellet. Physiological data of animals implanted with drug release pellets. A—The absolute body mass of mice was not altered by Fgf8b. […] C—The masses of the implanted epididymal fat depot and the contralateral non-implanted depot were not different. Interscapular brown adipose tissue was not different in placebo and Fgf8b treated animals. […] E—Plasma metabolites of carbohydrate and lipid metabolisms were not affected by Fgf8b treatment (GLU—glucose, CHOL—total cholesterol, nHDLc—non-HDL cholesterol, HDL—high density lipoproteins, LDL—low density lipoproteins, VLDL—very low density lipoproteins, TRIG—triglycerides). F—Liver enzymes in the plasma were not altered by Fgf8b treatment. Pellets 1.5 mm in diameter were fabricated from a biodegradable matrix to locally release 100 ng FGF8b per day for 21 days (Innovative Research of America, Sarasota, Fla., USA). […] To implant a pellet into the subcutaneous adipose tissue, a mouse of the 129Sv/ev strain was anesthetized, abdominal fur removed and the pellet pushed into the depot through a short cut in the skin. To target the visceral adipose tissue, the pellet was introduced through a small cut each into skin and abdominal wall and placed between lobes of epididymal adipose tissue. Mice were kept in a specific pathogen free barrier facility at room temperature in a 12:12 hour light:dark cycle with free access to food and water. Three weeks after implantation mice were killed by carbon dioxide exposure and dissected. Blood parameters were analyzed with an automated clinical chemistry analyzer (Piccolo xpress system, Abaxis, Darmstadt, Germany). All animal experiments were performed according to the German animal welfare law (permission no. 55.2-1-54-2532-174-11). To investigate the ability of FGF8b to transform white adipose tissue into brown adipose tissue in vivo, we obtained pellets that release 100 ng FGF8b per day and placebo pellets. One pellet each was implanted into the epididymal white adipose tissue of adult male 129Sv/ev mice. After three weeks mice were sacrificed and the tissue analyzed. […] In summary, we found no evidence of any gross metabolic difference between treatment groups.

[3] = tested on: visceral, epididymal white adipocytes; assay: Ucp1 / brown adipocyte marker mRNA (qPCR) in immortalized epididymal white adipocytes treated with FGFs; assay type: cell-based, murine
[4] = RNA preparation of complete unilateral epididymal depot, 100 ng per day, three weeks, vs placebo pellet
[5] = continuous treatment during differentiation, fully differentiated cells (FIG. 2B)
[6] = epididymal cells treated 48 hours during proliferation prior to induction
[7] = epididymal cells treated 48 hours during proliferation prior to induction, sampled acute to d6 p.i.

B1: FGF8b: murine recombinant paracrine fibroblast growth factor 8, major spliceform b (R&D Systems); amino acid sequence identical to human, SEQ ID NO:16/20 (protein)
chain: MGSPRSALSCLLLHLLVLCLQAQVTVQSSPNFTQHVREQSLVTDQLSRRLIRTYQLYSRTSGKHVQVLANKRINAMAEDGDPFAKLIVETDTFGSRVRVRGAETGLYICMNKKGKLIAKSNGKGKDCVFTEIVLENNYTALQNAKYEGWYMAFTRKGRPRKGSKTRQHQREVHFMKRLPRGHHTTEQSLRFEFLNYPPFTRSLRGSQRTWAPEPR
modifications: human FGF8b
Visual browning and expression of brown adipocyte marker genes [1]: did not lead to visual browning or increased expression of brown adipocyte marker genes
Relationship between depot mass and body mass ([2]; 100 ng per day, three weeks, vs placebo (FIG. 7D)): not influenced
Depot mass of implanted and non-implanted epididymal fat and of interscapular brown adipose tissue ([2]; 100 ng per day, three weeks, vs placebo group): not different between groups
Final body weight ([2]; 100 ng per day, three weeks, vs placebo group, lean healthy mice): comparable
Plasma metabolites of carbohydrate and lipid metabolisms (GLU, CHOL, nHDLc, HDL, LDL, VLDL, TRIG) ([2]; 100 ng per day, three weeks, vs placebo, Piccolo xpress analyzer): not affected
Change in body weight during the 3 weeks of treatment ([2]; 100 ng per day, vs placebo group): comparable
Cox7a1 mRNA abundance in the entire depot [2, 4]: increased
Ucp1 mRNA abundance in the entire depot [2, 4]: increased
Systemic adverse reaction ([2]; mouse, in vivo): no evidence for any systemic adverse reaction
Extent of browned area away from the implanted pellet ([2]; one pellet releasing 100 ng FGF8b per day, three weeks): approximately 3 mm
Colour of implantation site and surrounding adipose tissue by visual inspection ([2]; one pellet releasing 100 ng FGF8b per day, three weeks, placebo site and contralateral depot remained white): brown colour
Cox7a1 mRNA [3, 5]: not or only slightly increased
Elovl3 mRNA [3, 5]: not or only slightly increased
Cidea mRNA abundance ([3]; epididymal adipocytes, treatment during differentiation, greater effect size than in inguinal): increased
Cox7a1 mRNA abundance in mature adipocytes [3, 6]: increased
Foxc2 mRNA abundance, acute response [3, 6]: do not acutely respond
Prdm16 mRNA abundance, timecourse [3, 6]: transient increase in abundance directly following induction
pRb mRNA abundance, acute response [3, 6]: do not acutely respond
Cidea mRNA abundance, timecourse [3, 7]: already increasing on day 4 p.i.
Elovl3 mRNA abundance, timecourse [3, 7]: already increasing on day 4 p.i.
Ucp1 mRNA abundance, timecourse ([3]; epididymal cells treated 48 hours during proliferation prior to induction, sampled acute, d1, d2, d4, d6 p.i., normalized to untreated): increased 6 days after induction for the first time
Pgc1a mRNA abundance after complete differentiation ([3]; epididymal cells treated 48 hours during proliferation, day 6 p.i.): increased Pgc1a mRNA abundance
Pgc1a mRNA abundance, acute ([3]; epididymal cells treated 48 hours during proliferation, sample immediately after treatment): acutely downregulated
Final Ucp1 mRNA abundance after full differentiation (responsiveness) ([3]; epididymal cells, comparably late treatment (fully differentiated state)): respond
Final Ucp1 mRNA abundance after full differentiation ([3]; epididymal cells, treatment during the entire differentiation period): strongest Ucp1 induction
